Source: US20260242478A1 (published 2026)
Where no end group is shown, it is not given here.

B1: Phage-1314 (peptide)
peptide: YCEGHLDEYLQKCM
notes: Peptide-87 library clone, tested as clonal phage (peptide fused to pIII of the bacteriophage)
B2: Phage-1304 (peptide, not shown: large carriers)
peptide: YCEGHIGDYIAKCL
modifications: cysteine pairing not given here; also: fused to phage pIII protein, pIII and linker sequence not given here
notes: Tested as clonal phage supernatant
B3: Phage-1301 (peptide, not shown: large carriers)
peptide: YCEGHLAVHMSKCL
modifications: cysteine pairing not given here; also: fused to phage pIII protein, pIII and linker sequence not given here
notes: as for B2
B4: Phage-1308 (peptide, not shown: large carriers)
peptide: YCDGHVTEYMAKCL
modifications: cysteine pairing not given here; also: fused to phage pIII protein, pIII and linker sequence not given here
notes: as for B2
B5: Phage-1310 (peptide, not shown: large carriers)
peptide: YCEGHKKEYMLKCL
modifications: cysteine pairing not given here; also: fused to phage pIII protein, pIII and linker sequence not given here
notes: as for B2
B6: Phage-1312 (peptide, not shown: large carriers)
peptide: YCDGHLETYMQKCL
modifications: cysteine pairing not given here; also: fused to phage pIII protein, pIII and linker sequence not given here
notes: as for B2
B7: Phage-1303 (peptide, not shown: large carriers)
peptide: YCAGHALEYMQKCM
modifications: cysteine pairing not given here; also: fused to phage pIII protein, pIII and linker sequence not given here
notes: as for B2
B8: Phage-1307 (peptide, not shown: large carriers)
peptide: YCEGHLQEYMGKCL
modifications: cysteine pairing not given here; also: fused to phage pIII protein, pIII and linker sequence not given here
notes: as for B2
B9: Phage-1300 (peptide, not shown: large carriers)
peptide: YCSGHLPMYMAKCL
modifications: cysteine pairing not given here; also: fused to phage pIII protein, pIII and linker sequence not given here
notes: as for B2
B10: Phage-1309 (peptide, not shown: large carriers)
peptide: YCDGHIMPYLDKCL
modifications: cysteine pairing not given here; also: fused to phage pIII protein, pIII and linker sequence not given here
notes: as for B2
B11: Phage-1302 (peptide, not shown: large carriers)
peptide: YCDGHIEMYMSKCM
modifications: cysteine pairing not given here; also: fused to phage pIII protein, pIII and linker sequence not given here
notes: as for B2
B12: Phage-1306 (peptide, not shown: large carriers)
peptide: YCDGHTPQFRAKCL
modifications: cysteine pairing not given here; also: fused to phage pIII protein, pIII and linker sequence not given here
notes: as for B2
B13: Phage-1311 (peptide, not shown: large carriers)
peptide: YCEGHVELYRQKCL
modifications: cysteine pairing not given here; also: fused to phage pIII protein, pIII and linker sequence not given here
notes: as for B2
B14: Phage-1305 (peptide, not shown: large carriers)
peptide: YCQGHSELYMSKCL
modifications: cysteine pairing not given here; also: fused to phage pIII protein, pIII and linker sequence not given here
notes: as for B2

These binders were tested against Anti-CD28 Fab (SEQ ID NOs: 696, 697) (assay: phage binding ELISA on captured anti-CD28 Fab, wells pre-incubated with CD28 antigen as competitor;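 note: crude clonal phage supernatants added to wells preloaded with CD28 antigen, bound phage read by HRP-conjugated anti-M13 antibody, control wells got blocking buffer alone without CD28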).
Target sequence in this assay (VH, as listed by the source, chain 1 of 2): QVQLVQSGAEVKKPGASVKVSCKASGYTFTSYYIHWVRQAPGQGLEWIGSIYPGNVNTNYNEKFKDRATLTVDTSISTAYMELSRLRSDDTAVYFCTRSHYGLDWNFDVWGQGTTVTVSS
Target sequence in this assay (VL, as listed by the source, chain 2 of 2): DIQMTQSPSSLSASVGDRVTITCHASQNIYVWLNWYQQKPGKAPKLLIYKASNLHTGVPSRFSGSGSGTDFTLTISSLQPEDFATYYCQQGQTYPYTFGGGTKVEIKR
Procedure: (§1) After panning, phage infected bacteria were plated out and colonies picked into 96 well blocks. Clonal phage was then amplified and separated from bacterial cells via centrifugation.
(§2) Clonal phage were harvested as crude supematants and screened via standard ELISAs. […] Prior to the addition of clonal phage, wells were incubated with blocking buffer and CD28 antigen or blocking buffer alone. Without washing or aspirating, clonal phage supematants were then added to the wells and incubated for a short time. Wells were then washed followed by detection of bound phage using a horse radish conjugated anti-M13 antibody. Clonal phage of interest were then sent for sequence analysis.

Binder | Anti-CD28 Fab signal in the presence of CD28 (phage binding ELISA)
B1 | 0.08

These binders were tested against Anti-CD28 Fab (SEQ ID NOs: 696, 697) (assay: phage ELISA; Fab on plate pre-incubated with CD28 antigen (competitor), clonal phage supernatant, anti-M13 HRP detection).
Target sequence in this assay (VH, as listed by the source, chain 1 of 2): as the sequence (VH, as listed by the source, chain 1 of 2) above
Target sequence in this assay (VL, as listed by the source, chain 2 of 2): as the sequence (VL, as listed by the source, chain 2 of 2) above
Procedure: as §1, §2

Binder | Phage binding ELISA, Anti-CD28 Fab signal in the presence of CD28
YCQGHSVQYMAKCL (also called Peptide-87 library clone) [Phage-1272] | 0.06
YCDGHSPQYLWKCL (also called Peptide-87 library clone) [Phage-1269] | 0.05
YCAGHTQEYMLKCL (also called Peptide-87 library clone) [Phage-1271] | 0.06
YCDGHDPQYIRKCI (also called Peptide-87 library clone) [Phage-1264] | 0.06
YCEGHAREYMDKCL (also called Peptide-87 library clone) [Phage-1267] | 0.07
YCAGHSAEYIQKCL (also called Peptide-87 library clone) [Phage-1270] | 0.08
YCEGHLPMYMQKCM (also called Peptide-87 library clone) [Phage-1265] | 0.07
YCDGHSGEYMSKCL (also called Peptide-87 library clone) [Phage-1266] | 0.06
YCDGHSMEYMAKCL (also called Peptide-87 library clone) [Phage-1268] | 0.07

The binders below were run against Anti-CD28 Fab (SEQ ID NOs: 696, 697) (assay: phage ELISA as above; wells pre-incubated with CD28 antigen as competitor).
Target sequence in this assay (VH, as listed by the source, chain 1 of 2): as the sequence (VH, as listed by the source, chain 1 of 2) above
Target sequence in this assay (VL, as listed by the source, chain 2 of 2): as the sequence (VL, as listed by the source, chain 2 of 2) above
Procedure: as §1, §2

Binder | Anti-CD28 Fab signal in the presence of CD28 (phage binding ELISA)
B2 | 0.36
B3 | 0.06
B4 | 0.07
B5 | 0.08
B6 | 0.08
B7 | 0.08
B8 | 0.25
B9 | 0.13
B10 | 0.05
B11 | 0.06
B12 | 0.07
B13 | 0.06
B14 | 0.08

These binders were tested against T1, Anti-CD28 Fab (SEQ ID NOs: 696, 697) (assay: phage ELISA; biotinylated anti-CD28 Fab on neutravidin plate, clonal phage supernatant, anti-M13 HRP detection;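 note: crude supernatants of single phage clones picked after panning were screened for binding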).
T1 construct: In the phage ELISA the Fab was biotinylated and captured on neutravidin coated plates
T1 sequence (VH, as listed by the source, chain 1 of 2): as the sequence (VH, as listed by the source, chain 1 of 2) above
T1 sequence (VL, as listed by the source, chain 2 of 2): as the sequence (VL, as listed by the source, chain 2 of 2) above
Procedure: as §1, §2

Binder | Phage binding ELISA, Anti-CD28 Fab signal
YCEGHAQMYMLKCL [Phage-1298] | 0.64
YCEGHAAVYMHKCL [Phage-1293] | 0.67
YCDGHYGAYILKCL [Phage-1292] | 0.67
YCDGHAAWYLQKCL [Phage-1297] | 0.64
YCEGHLPQYLAKCY [Phage-1291] | 0.67
YCQGHAPWYMVKCL [Phage-1287] | 0.69
YCDGHEPQYMTKCL [Phage-1290] | 0.68
YCDGHAWWYMEKCL [Phage-1296] | 0.64
YCMGHSAEYMGKCL [Phage-1295] | 0.64
YCEGHSRQYMEKCM [Phage-1299] | 0.63
YCEGHMSEYMRKCL [Phage-1288] | 0.69
YCVGHLPLYMPNCL [Phage-1289] | 0.68
YCDGHMDAYMSKCL [Phage-1294] | 0.65

These binders were tested against Anti-CD28 Fab (SEQ ID NOs: 696, 697) in the same assay as above.
Target sequence in this assay (VH, as listed by the source, chain 1 of 2): as the sequence (VH, as listed by the source, chain 1 of 2) above
Target sequence in this assay (VL, as listed by the source, chain 2 of 2): as the sequence (VL, as listed by the source, chain 2 of 2) above
Procedure: as §1, §2

Binder | Phage binding ELISA, Anti-CD28 Fab signal
YCQGHSVQYMAKCL (also called Peptide-87 library clone) [Phage-1272] | 0.77
YCDGHSPQYLWKCL (also called Peptide-87 library clone) [Phage-1269] | 0.8
YCAGHTQEYMLKCL (also called Peptide-87 library clone) [Phage-1271] | 0.78
YCDGHDPQYIRKCI (also called Peptide-87 library clone) [Phage-1264] | 0.83
YCEGHAREYMDKCL (also called Peptide-87 library clone) [Phage-1267] | 0.8
YCAGHSAEYIQKCL (also called Peptide-87 library clone) [Phage-1270] | 0.8
YCEGHLPMYMQKCM (also called Peptide-87 library clone) [Phage-1265] | 0.82
YCDGHSGEYMSKCL (also called Peptide-87 library clone) [Phage-1266] | 0.82
YCDGHSMEYMAKCL (also called Peptide-87 library clone) [Phage-1268] | 0.8

Biological target: Anti-CD28 Fab (SEQ ID NOs: 696, 697)
Experiment: as above
Remark: another data set of the same source
Target sequence in this assay (VH, as listed by the source, chain 1 of 2): as the sequence (VH, as listed by the source, chain 1 of 2) above
Target sequence in this assay (VL, as listed by the source, chain 2 of 2): as the sequence (VL, as listed by the source, chain 2 of 2) above
Procedure: as §1, §2

Binder | Anti-CD28 Fab signal (phage binding ELISA)
B2 | 0.61
B3 | 0.62
B4 | 0.58
B5 | 0.56
B6 | 0.53
B7 | 0.61
B8 | 0.58
B9 | 0.62
B10 | 0.57
B11 | 0.61
B12 | 0.59
B13 | 0.56
B14 | 0.6

These binders were tested against Anti-CD28 Fab (SEQ ID NOs: 696, 697) (assay: phage binding ELISA, clonal phage on biotinylated anti-CD28 Fab captured on neutravidin plates;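 note: crude clonal phage supernatants added to wells pretreated with CD28 antigen or blocking buffer only, bound phage detected by HRP-linked anti-M13 antibody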).
Procedure: as §1, §2

Binder | Anti-CD28 Fab signal (phage binding ELISA)
B1 | 0.51

These binders were tested against T1, Anti-CD28 Fab (SEQ ID NOs: 696, 697) (assay: phage ELISA; Fab-coated wells pre-incubated with CD28 antigen as competitor, clonal phage supernatant, anti-M13 HRP detection).
Procedure: as §1, §2

Binder | Phage binding ELISA, Anti-CD28 Fab signal in the presence of CD28
YCEGHAQMYMLKCL [Phage-1298] | 0.06
YCEGHAAVYMHKCL [Phage-1293] | 0.09
YCDGHYGAYILKCL [Phage-1292] | 0.06
YCDGHAAWYLQKCL [Phage-1297] | 0.07
YCEGHLPQYLAKCY [Phage-1291] | 0.08
YCQGHAPWYMVKCL [Phage-1287] | 0.08
YCDGHEPQYMTKCL [Phage-1290] | 0.1
YCDGHAWWYMEKCL [Phage-1296] | 0.06
YCMGHSAEYMGKCL [Phage-1295] | 0.06
YCEGHSRQYMEKCM [Phage-1299] | 0.33
YCEGHMSEYMRKCL [Phage-1288] | 0.1
YCVGHLPLYMPNCL [Phage-1289] | 0.11
YCDGHMDAYMSKCL [Phage-1294] | 0.06
